This is an account of results in patent publication US20190314470A1 (UNITED STATES GOVERNMENT AS REPRESENTED BY THE DEPARTMENT …, published 2019).

The test addresses T1, K-RAS protein (recombinant, abcam) (UniProt P01116-2 1-188, limits assumed).
T1 construct: Bought recombinant protein used in solution in the far western; One partner was labelled with the cysteine-reactive dye NT-647
Put plainly: quantification of the anti-RAS far western of FIG. 2E; two VAMP3 preparations.

Method: Far Western Blotting. […] The membrane was then washed in 5% milk in TBST and incubated with horseradish peroxidase (HRP)-conjugated secondary antibody for 1 hr at RT. The membrane was then developed using the SuperSignal West Dura reagent (ThermoFischer). Quantification was done using ImageJ. For loading controls, duplicate membranes were spotted and immediately stained with a Coomassie Stain Kit (Biorad).

B1: VAMP3 (recombinant, LSbiosciences / MyBiosource) (other, UniProt Q15836 1-77, looked up)
chain: MSTGPTAATGSNRRLQQTQNQVDEVVDIMRVNVDKVLERDQKLSELDDRADALQAGASQFETSAAKLKRKYWWKNCK
notes: Two commercial preparations were spotted in the far western; also called vesicle-associated membrane protein 3
Turning to B1, the binding result was “no binding (tested: 2 µg spotted)”.
